One protein from patent publication US4579822A (priority 1983, dated 1986) can be followed below.

Common to all, as to test: Km values of DHAK (II) for substrates and coenzyme
What all share (assay type): biochemical, Schizosaccharomyces pombe IFO 0354
Common to all, as to details: other: pH 7.5, 25° C.

Substrate in data set [1]: Nc1ncnc2c1ncn2[C@@H]1O[C@H](COP(=O)(O)OP(=O)(O)OP(=O)(O)O)[C@@H](O)[C@H]1O
Substrate in data set [2]: O=C(CO)CO
Substrate in data set [3]: O=CC(O)CO

B1: DHAK (II) (Schizosaccharomyces pombe 972h-) (protein)
chain: MSVKQFVSDGHIVRPYLLGLARSNPGLTVIEHDRVIYRTASAPGSGDLPKVTLVSGGGSGHEPTHAGFVGDGALDAVACGDIFASPSTKQIYSALKAVASPKGTLIIVKNYTGDIIHFGLAAERAKAAGMNVELVAVGDDVSVGKKRGALVGRRGLGATVLVHKIAGSAAALGLDLHQVAQVAQSVIDNAATIAASLDHCAVPGRKFETNLGPDEYEIGMGIHNEPGTFKSSPLPSIPELVTEMLSILFGEKNPDNSFVEFSSKDDVILLVNNMGGMSNLELGYATEVVSEQLAKRGIIPKRTMSGTFVTALNGPGFGITLVNASKATPDIFKYFDLPTTASGWNVSYHNAKDWEVLADGKVPTAPALEHTRNEKHSGVKADPKMFTKILKAAVDAINEFEPKTTWYDTIAGDGDCGTTLVNGGEAITKAINDKSIRLDDGVNGIDDLAYIVEDSMGGTSGGLYSIYLSALAKGVHESGDSELSVHTFAFASKYALDALFKYTRARKGFRTLIDAIQPFVETLNEGKGLDAAAKAATEGSEQTRKMDAVVGRASYVAKEELHKLDSEGGLPDPGAFALAAILNAIVEASEH
notes: DHAK (I) and DHAK (II) obtained from Schizosaccharomyces pombe IFO 0354; made in house; host or cells: Schizosaccharomyces pombe IFO 0354 (natural producer, not recombinant); cell extract, DEAE-Sepharose fraction at 0.16 M KCl, then Blue-Sepharose
As a reminder, the Km is the concentration of substrate that gives half-maximal velocity. Consider B1, for which the figures for the Km in data set [1], in data set [2] and in data set [3] were 910 µM, 20 µM and 32 µM, respectively.
